T1: recombinant human CD123-Fc (human, UniProt P26951 19-305)
T1 construct: not shown: Fc part of CD123-Fc
T1 sequence: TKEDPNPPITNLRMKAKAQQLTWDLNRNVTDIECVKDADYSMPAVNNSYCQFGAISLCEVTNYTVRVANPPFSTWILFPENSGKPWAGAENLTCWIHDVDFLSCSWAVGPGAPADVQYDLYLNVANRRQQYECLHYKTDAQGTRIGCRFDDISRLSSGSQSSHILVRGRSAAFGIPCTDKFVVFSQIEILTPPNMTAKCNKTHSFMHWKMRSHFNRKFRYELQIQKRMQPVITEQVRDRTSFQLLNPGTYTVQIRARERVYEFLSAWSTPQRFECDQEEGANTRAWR

B1: SEQ ID NO: 441 (designed binder)
chain: MGSWIVFKDDLADIKRWLEALGGSEAELAMFEDEIADFEWQLQDYKGKGNPEVEALRKEAAAIRDELQAYRHN
notes: D domain, on phage
B2: SEQ ID NO: 433 (designed binder)
chain: MGSWNEFEDRLDAIWWRLFALGGSEAELAAFEKEIAAFESELQAYKGKGNPEVEALRVEAAFIRTMLQAYRHN
notes: D domain, on phage
B3: SEQ ID NO: 434 (designed binder)
chain: MGSWFYFKDDLADINYMLEALGGSEAELAMFEDDIAGFELTLLKYKGKGNPEVEALRKEAAAIRDELQAYRHN
notes: D domain, on phage
B4: SEQ ID NO: 398 (designed binder)
chain: MGSWSEFEHRLEAIESRLFALGGSEAELAAFEKEIAAFESELQAYKGKGNPEVEDLRSEAAWIREQLQAYRHN
notes: D domain, on phage
B5: SEQ ID NO: 400 (designed binder)
chain: MGSWFEFWGRLEAIESRLKALGGSEAELAAFEKEIAAFESELQAYKGKGNPEVEELREHAAWIRAYLQAYRHN
notes: D domain, on phage
B6: SEQ ID NO: 453 (designed binder)
chain: MGSWSFFKEELANIQVYLEALGGSEAELAWFEEDIADFEEDLQHYKGKGNPEVEALRKEAAAIRDELQAYRHN
notes: D domain, on phage
B7: SEQ ID NO: 454 (designed binder)
chain: MGSWEFFKYELADIKDELEALGGSEAELAWFEEDIATFEEWLQGYKGKGNPEVEALRKEAAAIRDELQAYRHN
notes: D domain, on phage
B8: SEQ ID NO: 392 (designed binder)
chain: MGSWTEFWERLNAIDERLFALGGSEAELAAFEKEIAAFESELQAYKGKGNPEVEWLRLYAAEIRSELQAYRHN
notes: D domain, on phage
B9: SEQ ID NO: 393 (designed binder)
chain: MGSWWEFEERLWAIDYRLHALGGSEAELAAFEKEIAAFESELQAYKGKGNPEVEMLRSWAAEIRALLQAYRHN
notes: D domain, on phage
B10: SEQ ID NO: 435 (designed binder)
chain: MGSWHFFKDDLAWIKNELEALGGSEAELAMFEDDIAMFETMLQSYKGKGNPEVEALRKEAAAIRDELQAYRHN
notes: D domain, on phage
B11: SEQ ID NO: 442 (designed binder)
chain: MGSWGHFKQDLAWIKDTLEALGGSEAELAFFEDDIAMFEMELQDYKGKGNPEVEALRKEAAAIRDELQAYRHN
notes: D domain, on phage
B12: SEQ ID NO: 436 (designed binder)
chain: MGSWHWFKTDLADIKEELEALGGSEAELAMFEDDIAEFEEFLQMYKGKGNPEVEALRKEAAAIRDELQAYRHN
notes: D domain, on phage
B13: SEQ ID NO: 388 (designed binder)
chain: MGSWTEFYNRLDAIDQRLWALGGSEAELAAFEKEIAAFESELQAYKGKGNPEVEMLREYAADIRTDLQAYRHN
notes: D domain, on phage
B14: SEQ ID NO: 389 (designed binder)
chain: MGSWWEFIWRLEAIEQRLWALGGSEAELAAFEKEIAAFESELQAYKGKGNPEVEVLRSRAADIRTDLQAYRHN
notes: D domain, on phage
B15: SEQ ID NO: 391 (designed binder)
chain: MGSWSEFEDRLWAIDQRLFALGGSEAELAAFEKEIAAFESELQAYKGKGNPEVEWLRAYAADIRWELQAYRHN
notes: D domain, on phage
B16: SEQ ID NO: 395 (designed binder)
chain: MGSWVEFEERLWAIDERLGALGGSEAELAAFEKEIAAFESELQAYKGKGNPEVEWLRDWAADIRWWLQAYRHN
notes: D domain, on phage
B17: SEQ ID NO: 396 (designed binder)
chain: MGSWVEFEERLEAIEERLFALGGSEAELAAFEKEIAAFESELQAYKGKGNPEVEWLRDDAANIRHWLQAYRHN
notes: D domain, on phage
B18: SEQ ID NO: 390 (designed binder)
chain: MGSWSEFYDRLWAIEERLFALGGSEAELAAFEKEIAAFESELQAYKGKGNPEVEYLRYYAAEIREELQAYRHN
notes: D domain, on phage
B19: SEQ ID NO: 394 (designed binder)
chain: MGSWWEFENRLWAIEERLEALGGSEAELAAFEKEIAAFESELQAYKGKGNPEVEMLRNYAAEIRWELQAYRHN
notes: D domain, on phage
B20: SEQ ID NO: 439 (designed binder)
chain: MGSWQWFKDDLAYIKETLEALGGSEAELALFEDMIADFEFELQWYKGKGNPEVEALRKEAAAIRDELQAYRHN
notes: D domain, on phage
B21: SEQ ID NO: 444 (designed binder)
chain: MGSWYWFKDDLAEIKGLLEALGGSEAELAEFEDEIAVFEQELQEYKGKGNPEVEALRKEAAAIRDELQAYRHN
notes: D domain, on phage
B22: SEQ ID NO: 401 (designed binder)
chain: MGSWQEFTMRLDAIYNRLETLGGSEAELAAFEKEIAAFESELQAYKGKGNPEVEWLRQSAANIRSELQAYRHN
notes: D domain, on phage
B23: SEQ ID NO: 399 (designed binder)
chain: MGSWFEFWERLDAIEWRLWALGGSEAELAAFEKEIAAFESELQAYKGKGNPEVEELRSTAADIRRYLQAYRHN
notes: D domain, on phage
B24: SEQ ID NO: 432 (designed binder)
chain: MGSWFEFYERLDAINWRLFALGGSEAELAAFEKEIAAFESELQAYKGKGNPEVEALRGEAAAIREDLQAYRHN
notes: D domain, on phage
B25: SEQ ID NO: 451 (designed binder)
chain: MGSWYWFKQDLAHIKSMLEALGGSEAELAWFEEDIADFESELQEYKGKGNPEVEALRKEAAAIRDELQAYRHN
notes: D domain, on phage
B26: SEQ ID NO: 452 (designed binder)
chain: MGSWTFFKWDLADIKANLEALGGSEAELAWFEEDLAGFEAELQEYKGKGNPEVEALRKEAAAIRDELQAYRHN
notes: D domain, on phage
B27: SEQ ID NO: 455 (designed binder)
chain: MGSWQTFKDELAHIKWELEALGGSEAELAWFEWDIANFEEELQEYKGKGNPEVEALRKEAAAIRDELQAYRHN
notes: D domain, on phage
B28: SEQ ID NO: 456 (designed binder)
chain: MGSWYWFKEELAFIKWELEALGGSEAELALFEEDIAYFEEMLQEYKGKGNPEVEALRKEAAAIRDELQAYRHN
notes: D domain, on phage
B29: SEQ ID NO: 437 (designed binder)
chain: MGSWWLFKDDLAEIKYWLEALGGSEAELAFFEDDIAEFERGLQIYKGKGNPEVEALRKEAAAIRDELQAYRHN
notes: D domain, on phage
B30: SEQ ID NO: 438 (designed binder)
chain: MGSWYEFKDDLAEIKEWLEALGGSEAELAFFELDIADFEWLLQLYKGKGNPEVEALRKEAAAIRDELQAYRHN
notes: D domain, on phage
B31: SEQ ID NO: 449 (designed binder)
chain: MGSWTYFKDDLADIKQWLEALGGSEAELAFFEIEIAEFEEELQEYKGKGNPEVEALRKEAAAIRDELQAYRHN
notes: D domain, on phage
B32: SEQ ID NO: 448 (designed binder)
chain: MGSWTFFKNDLAEIKDWLEALGGSEAELADFEWDIAEFEYSLQEYKGKGNPEVEALRKEAAAIRDELQAYRHN
notes: D domain, on phage
B33: SEQ ID NO: 440 (designed binder)
chain: MGSWILFKDDLAWIKETLEALGGSEAELAFFEDNIADFEEQLQGYKGKGNPEVEALRKEAAAIRDELQAYRHN
notes: D domain, on phage
B34: SEQ ID NO: 446 (designed binder)
chain: MGSWTFFKEDLAGIKWELEALGGSEAELAWFEDEIALFEEELQEYKGKGNPEVEALRKEAAAIRDELQAYRHN
notes: D domain, on phage
B35: SEQ ID NO: 447 (designed binder)
chain: MGSWVFFKDDLADIKDELEALGGSEAELAFFEIAIALFEWELQEYKGKGNPEVEALRKEAAAIRDELQAYRHN
notes: D domain, on phage
B36: SEQ ID NO: 450 (designed binder)
chain: MGSWTVFKYDLADIKWWLEALGGSEAELADFEEEIAEFEEELQEYKGKGNPEVEALRKEAAAIRDELQAYRHN
notes: D domain, on phage
B37: SEQ ID NO: 445 (designed binder)
chain: MGSWMFFKEDLADIKWALEALGGSEAELAFFEEEIALFEQHLQQYKGKGNPEVEALRKEAAAIRDELQAYRHN
notes: D domain, on phage
B38: SEQ ID NO: 443 (designed binder)
chain: MGSWGYFKDDLAWIKGELEALGGSEAELAEFEWFIAVFEEDLQVYKGKGNPEVEALRKEAAAIRDELQAYRHN
notes: D domain, on phage

The assay deals with T1, recombinant human CD123-Fc. Kind of assay: phage ELISA, captured CD123-Fc. On the procedure:
Individual colonies containing phagemid from BCMA panning output were picked and phage were rescued in 96-well format using VCSM13 helper phage following standard protocols. To assay target binding by ELISA, 96-well plates were coated with 1.3 microg/ml goat anti-human IgG1-Fc antibody followed by incubation with 5 nM of recombinant human target (BCMA-Fc, CD123-Fc, AFP, or AFP123) or IgG1-Fc. 50 microl of rescued phage diluted 5× in ELISA blocking buffer was then added to each well. Binding was detected using an HRP-conjugated anti-M13 antibody and the ELISA ratio for each sequence is reported as the absorbance at 450 nm for target (i.e., BCMA-Fc, CD123-Fc, AFP, or AFP123) divided by that for IgG1-Fc averaged across all screened wells containing that clone.
In general terms: An ELISA detects its analyte on a solid surface through an enzyme-linked reagent.
With B1, the ELISA_avg is 3.9 ratio A450 target/IgG1-Fc.
Under B2 stands 5.1 ratio A450 target/IgG1-Fc; under B3, 3.7 ratio A450 target/IgG1-Fc.
With B4 the figure was 7.6 ratio A450 target/IgG1-Fc.
For B5, the ELISA_avg is 4.9 ratio A450 target/IgG1-Fc.
Under B6 stands 3.8 ratio A450 target/IgG1-Fc; under B7, 3.4 ratio A450 target/IgG1-Fc; under B8, 4 ratio A450 target/IgG1-Fc.
Under B9 stands 4.1 ratio A450 target/IgG1-Fc; under B10, 3.2 ratio A450 target/IgG1-Fc; under B11, 4.9 ratio A450 target/IgG1-Fc.
With B12 the figure was 3.5 ratio A450 target/IgG1-Fc; with B13, 3.3 ratio A450 target/IgG1-Fc; with B14, 4 ratio A450 target/IgG1-Fc.
As to B15, the ELISA_avg worked out at 4.2 ratio A450 target/IgG1-Fc.
Regarding B16, the ELISA_avg was determined as 4.1 ratio A450 target/IgG1-Fc.
Under B17 stands 3.8 ratio A450 target/IgG1-Fc.
Consider B18, for which the ELISA_avg amounted to 17 ratio A450 target/IgG1-Fc.
With B19 the figure was 5.6 ratio A450 target/IgG1-Fc; with B20, 6.3 ratio A450 target/IgG1-Fc; with B21, 10.4 ratio A450 target/IgG1-Fc.
With B22 the figure was 13.7 ratio A450 target/IgG1-Fc; with B23, 3.4 ratio A450 target/IgG1-Fc.
Under B24 stands 3 ratio A450 target/IgG1-Fc; under B25, 3.3 ratio A450 target/IgG1-Fc.
Regarding B26, the ELISA_avg came to 4.8 ratio A450 target/IgG1-Fc.
With B27 the figure was 5.5 ratio A450 target/IgG1-Fc.
B28: the ELISA_avg stood at 9.4 ratio A450 target/IgG1-Fc.
Under B29 stands 3.3 ratio A450 target/IgG1-Fc.
With B30 the figure was 3.8 ratio A450 target/IgG1-Fc; with B31, 4.6 ratio A450 target/IgG1-Fc; with B32, 3.9 ratio A450 target/IgG1-Fc.
Under B33 stands 6 ratio A450 target/IgG1-Fc.
In the case of B34, the ELISA_avg came out at 7 ratio A450 target/IgG1-Fc.
Under B35 stands 8.8 ratio A450 target/IgG1-Fc; under B36, 3.9 ratio A450 target/IgG1-Fc.
Under B37 stands 3.2 ratio A450 target/IgG1-Fc.
Under B38 stands 4.5 ratio A450 target/IgG1-Fc.
